Results taken from PMC5369232.

T1: orange carotenoid protein (OCP) of Synechocystis sp. PCC 6803 (Synechocystis sp. PCC 6803), P74102
T1 chain: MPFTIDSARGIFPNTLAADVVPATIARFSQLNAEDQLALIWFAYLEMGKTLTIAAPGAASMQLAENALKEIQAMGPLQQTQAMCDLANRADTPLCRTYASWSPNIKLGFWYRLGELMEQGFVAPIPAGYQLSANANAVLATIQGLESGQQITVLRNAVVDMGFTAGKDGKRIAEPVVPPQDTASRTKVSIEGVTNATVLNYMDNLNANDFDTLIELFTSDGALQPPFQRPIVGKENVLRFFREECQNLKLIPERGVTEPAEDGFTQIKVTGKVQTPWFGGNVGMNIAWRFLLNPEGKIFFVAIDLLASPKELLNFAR

B1: orange carotenoid protein (OCP) of Synechocystis sp. PCC 6803, P74102 1-317 (natural protein)
chain: T1 chain

Legend:
[1] = molecular target: fluorescence recovery protein (FRP, Slr1964) of Synechocystis sp. PCC 6803, His6-tagged (Synechocystis sp. PCC 6803) (UniProt P74103); test: native MS
[2] = molecular target: T1, orange carotenoid protein (OCP) of …; test: native MS; details: remark: other sources report otherwise

Row | Molecule | stoichiometry N [1] | stoichiometry N [2]
1 | fluorescence recovery protein (FRP, Slr1964) of Synechocystis sp. PCC 6803, His6-tagged (from UniProt P74103 2-109) (natural protein) | 2 | –
2 | B1 | – | 2
